# Bridges are numbered along the chain shown (N, C = ends). Where no end group is shown, it is not given here.
# What was measured:
# sEGFR-MMB = biological target: T1, sEGFR-MMB (Homo sapiens, UniProt P00533); assay: Phage ELISA screening of panning hits; format: binding; conditions: phage clone culture supernatant; background typically <200 units
# T1 construct: made in house; host or cells: Human Embryonic Kidney cells (293E)
# Description: Phage Screening. Individual phage clones from selections were amplified and screened for EGFR binding by phage ELISA. To amplify pIII phage for screening, phage eluates from round 3 were diluted appropriately and plated with a lawn of XL-1 Blue to yield isolated single plaques. 24 plaques from each pool were picked and inoculated into a culture of XL-1 Blue host cells. The cultures were shaken at 37° C. for 4.5 hr and the cells were removed by centrifugation. To amplify pIX-displaying phagemid clones, phage eluates were infected into XL-1 Blue and plated onto LB-ampicillin plates. Individual colonies were cultured in 1 ml volumes and rescued with VCS-M13 helper phage. Bacterial cells were removed from phage cultures by centrifugation at (2250×g, 7 min) and the phage-containing supernatant was saved.
# The protein solution was removed and wells were rinsed twice with Tris-Buffered Saline containing 0.05% Tween-20 (TBS-T) using a plate washer (Embla). The wells were blocked with Starting Block in TBS for 1 hr at room temperature and rinsed twice with TBS-T. An equal volume of phage supernatant and Starting Block in TBS were incubated in the wells for 1 hr at room temperature, and the wells were rinsed five times with TBS-T. Anti-M13/horseradish peroxidase conjugate (Amersham), diluted 1:5000 in Starting Block in TBS, was added into the wells and incubated for 1 hour at room temperature, and then the wells were rinsed five times with TBS-T. Finally, chemiluminescent peroxidase substrate (Roche) was added to the wells, and chemiluminescence was measured on a Tecan plate reader.
# Sequences and ELISA signal (background typically <200 units) are given, along with a consensus sequence, if any. Cysteines that are fixed in the library design are underlined.
# A431 cells = assay: Flow cytometry of phage binding to tumor cells; format: cell-based, human; conditions: for binding to A431 tumor cells: anti-phage-FITC antibody, 4° C.
# Description: (§1) Flow cytometry. To evaluate whether the selected peptides from phage display can bind to tumor cells that overexpress EGFR, A431 cells (epidermoid cancer) or an EGFR negative tumor cells, MCF-7 (breast carcinoma) were tested in a flow cytometry assay using fluorescence detection (FACS). For P145, PP146 and their control phage, 2.5×10^5 A431 cells were resuspended in 25 μl of flow staining buffer (dPBS with 1% BSA, 0.09% sodium azide) and incubated with 25 μl of phage clones for 1 hour at 4° C. […] Cells were washed two times with flow staining buffer and then incubated with 0.5 μg of mouse anti M13/fd/F1 filamentous phages monoclonal antibody conjugated to FITC (Fitzgerald Industries International, Inc. Concord, Mass.) for 45 minutes at 4° C. Cells were washed two times with flow staining buffer and acquired by FACSCalibur (BD, Franklin Lakes, N.J.) to detect bound phages on tumor cell surface. Results.
# (§2) A431 cells (epidermoid cancer) which overexpress EGFR and EGFR-negative tumor cells, MCF-7 (breast carcinoma) were tested in a flow cytometry assay. Tumor cells (A431 and MCF-7) were harvested with 0.25% tyrpsin-EDTA and washed twice with FACS staining buffer (dPBS with 1% BSA, 0.09% sodium azide). […] After binding at 4° C., cells were washed twice with FACS staining buffer to remove unbound phage and then incubated with 0.5 μg of mouse anti-M13 monoclonal antibody conjugated to FITC (Fitzgerald Industries International, Inc. Concord, Mass.) for 1 hour at 4° C. Mouse anti-M13-FITC incubated with cells without phage was used as background binding. Cells were washed twice with FACS staining buffer to remove unbound detection antibody.
# MCF-7 = assay: Flow cytometry of phage binding to EGFR negative tumor cells; format: cell-based, human; conditions: EGFR positive versus EGFR negative cells
# Description: as §1, §2
substance,measurement,setting,value
"15 (NWFSLPTLLCFPLNP; S15 library, which displays a random linear 15-mer) [compound 15]",ELISA signal,sEGFR-MMB,3669 units
35 (RGCVVFGDNIYCIV; Peptide family identified from the S18 library) [compound 35],ELISA signal,sEGFR-MMB,21963 units
"11 (ELGLPTLLCWPTDTL; S15 library, which displays a random linear 15-mer) [compound 11]",ELISA signal,sEGFR-MMB,9380 units
45 (DSCCSFLTDGTVVCSL; Peptide family identified from the S20 library) [compound 45],ELISA signal,sEGFR-MMB,9544 units
46 (YICTPSDIDSWYICYL; Peptide family identified from the S20 library) [compound 46],ELISA signal,sEGFR-MMB,6615 units
49 (LLCATTSFRDWFVCFT; Peptide family identified from the S20 library) [compound 49],ELISA signal,sEGFR-MMB,4512 units
TLCRSFFHPLCYA (Sequences of EGFR-Binding Peptides from pIII phage library (CNL5 P146)),binding to A431 relative to positive control EGF phage,A431 cells,weaker than that exhibited by a positive control phage
same,binding to A431 tumor cells,A431 cells,displayed binding
27 (DSCIQFANLLYCAI; Peptide family identified from the S18 library) [compound 27],ELISA signal,sEGFR-MMB,53162 units
33 (TDCVRFGETIYCIV; Peptide family identified from the S18 library) [compound 33],ELISA signal,sEGFR-MMB,13291 units
38 (YDCMIRADGSLICWC; Peptide family identified from the S19 library) [compound 38],ELISA signal,sEGFR-MMB,1286 units
34 (YDCVSFGAVAYCPQ; Peptide family identified from the S18 library) [compound 34],ELISA signal,sEGFR-MMB,3205 units
"16 (STITSLPTLQCWPIL; S15 library, which displays a random linear 15-mer) [compound 16]",ELISA signal,sEGFR-MMB,13332 units
26 (KHCILFEKTVYCAK; Peptide family identified from the S18 library) [compound 26],ELISA signal,sEGFR-MMB,9111 units
31 (TDCVIFGLETYCLR; disulfide 3-12 (inferred)) [compound 31],ELISA signal,sEGFR-MMB,37925 units
41 (CDCREAVSASLVCRY; Peptide family identified from the S19 library) [compound 41],ELISA signal,sEGFR-MMB,3347 units
VLCHRYYHPICYT [P145],binding to A431 relative to positive control EGF phage,A431 cells,weaker than that exhibited by a positive control phage
same,binding to A431 tumor cells,A431 cells,displayed binding
same,binding to A431 compared with MCF-7,MCF-7,greater binding to A431 than MCF-7 cells
24 (AKCIAFGNSVYCLN; Peptide family identified from the S18 library) [compound 24],ELISA signal,sEGFR-MMB,31524 units
SGCLDALWQCVY (S16 and S17 hits Phage 174) [P174],ELISA signal,sEGFR-MMB,34641 units
same,binding to A431 relative to positive control EGF phage,A431 cells,comparable to that by a positive control phage
same,binding to A431 tumor cells,A431 cells,displayed binding
same,binding to A431 compared with MCF-7,MCF-7,greater to A431 than to MCF-7
23 (AGCIAFVDVVYCAR; Peptide family identified from the S18 library) [compound 23],ELISA signal,sEGFR-MMB,6377 units
29 (RACITFGKVVYCEV; Peptide family identified from the S18 library) [compound 29],ELISA signal,sEGFR-MMB,30741 units
43 (PTCDSATRRVLTICAD; Peptide family identified from the S20 library) [compound 43],ELISA signal,sEGFR-MMB,5420 units
"18 (PIFSSLPVLYCTSQL; S15 library, which displays a random linear 15-mer) [compound 18]",ELISA signal,sEGFR-MMB,1425 units
DACTMVFLWCSL (S16 and S17 hits Phage 177) [P177],ELISA signal,sEGFR-MMB,8655 units
KTCVSTTFDLWFVCFA (disulfide 3-14 (inferred)) [P176],ELISA signal,sEGFR-MMB,37440 units
same,binding to A431 relative to positive control EGF phage,A431 cells,comparable to that by a positive control phage
same,binding to A431 tumor cells,A431 cells,displayed binding
RWCYFWWITICEL (S16 and S17 hits Phage 178) [P178],ELISA signal,sEGFR-MMB,7913 units
28 (TDCIRFGVLWYCLV; Peptide family identified from the S18 library) [compound 28],ELISA signal,sEGFR-MMB,4746 units
40 (AFCRLDFNQWLTCLV; Peptide family identified from the S19 library) [compound 40],ELISA signal,sEGFR-MMB,2581 units
"21 (LPDLICAVDSGTSGA; S15 library, which displays a random linear 15-mer) [compound 21]",ELISA signal,sEGFR-MMB,1161 units
47 (SVCVGTAFPGWMVCGP; Peptide family identified from the S20 library) [compound 47],ELISA signal,sEGFR-MMB,4771 units
32 (SDCVLFGSKLFCSA; families were identified from the S18 library) [compound 32],ELISA signal,sEGFR-MMB,35327 units
17 (PIDDESLPVLYCVTS; Random peptide) [compound 17],ELISA signal,sEGFR-MMB,1785 units
39 (GPCVLIRDYYLLCLE; disulfide 3-13 (inferred)) [compound 39],ELISA signal,sEGFR-MMB,13951 units
"10 (YRLFVDESIFFCTRL; S15 library, which displays a random linear 15-mer) [compound 10]",ELISA signal,sEGFR-MMB,3078 units
30 (AYCSFVAGDLVCQV; Peptide family identified from the S18 library) [compound 30],ELISA signal,sEGFR-MMB,19792 units
"20 (TVFTLPELVCVVAGT; S15 library, which displays a random linear 15-mer) [compound 20]",ELISA signal,sEGFR-MMB,1515 units
37 (MICYLVDSGNIICYK; Peptide family identified from the S19 library) [compound 37],ELISA signal,sEGFR-MMB,8806 units
"19 (GADTLPDLLCWESSL; S15 library, which displays a random linear 15-mer) [compound 19]",ELISA signal,sEGFR-MMB,5722 units
"LPDDSLPELICKVRG (S15 library, which displays a random linear 15-mer) [P175]",ELISA signal,sEGFR-MMB,6790 units
"12 (VSGILPILVCHPAAT; S15 library, which displays a random linear 15-mer) [compound 12]",ELISA signal,sEGFR-MMB,1107 units
25 (RDCIIFDKTVYCVI; Peptide family identified from the S18 library) [compound 25],ELISA signal,sEGFR-MMB,17060 units
"14 (HVSLQSLPELICVVS; S15 library, which displays a random linear 15-mer) [compound 14]",ELISA signal,sEGFR-MMB,1362 units
44 (WMCFLEGYGASLMCQC; Peptide family identified from the S20 library) [compound 44],ELISA signal,sEGFR-MMB,4795 units
